The conditions of the data set: Pseudomonas aeruginosa (strain ATCC 15692 / DSM 22644 / CIP 104116 / JCM 14847 / LMG 12228 / 1C / PRS 101 / PAO1), CD, HCl, whole UniProt chain shown.

B1: Cytochrome c-551 wild type, P00099 (protein)
chain: MKPYALLSLLATGTLLAQGAWAEDPEVLFKNKGCVACHAIDTKMVGPAYKDVAAKFAGQAGAEAELAQRIKNGSQGVWGPIPMPPNAVSDDEAQTLAKWVLSQK
Consider B1, for which, where the note is “pH 5, 25 °C, GdnHCl”, the denaturant m value is 2.17 kcal/mol/M and the “denaturant midpoint (higher = more stable)” value worked out at 2.25 M. Where the note is “pH 5, Thermal”, the Tm was 50.4 °C and the “unfolding enthalpy (van 't Hoff)” value is 37.6 kcal/mol.

Values taken from FireProtDB (doi:10.1074/jbc.274.53.37533).
